± gives the standard deviation of the averaged measurements.
B1: library; a variant is named by its letters at N, in order (parent)
chain: GCUGUCACCGGUGCUUGGUACGUUAUAUUCAGCCGGUCUGAUGAGUCUNNNNNNAGACGAAACAGC

Assays:
(6R,S)-folinic acid [1] = variants of: B1; assay: normalized RNA/DNA level without ligand (relative to sTRSVctl = 100) (log10 (% of sTRSVctl)); HEK293T overexpressing SLC46A1; higher = less ribozyme self-cleavage, higher mRNA level; conditions: without (6R,S)-folinic acid; ligand present: no
Outline: (§1)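 Ribozyme switch library plasmids with mCherry reporters (eGFP in certain ligand experiments) went into HEK293T cells at 4 µg per 6-well well. Where ligand was used, it was applied 1 h before transfection, and total RNA was extracted with EDTA 72 h later for reverse transcription, amplification, barcoding and sequencing. RNA level is the RNA-to-DNA read ratio normalized to a spiked-in non-cleaving sequence or to the leading sequences, then scaled and log-transformed. Scaling was ×100 with log10, the leading set comprised 25 sequences, and the cutoff was ≥100 DNA reads.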

(6R,S)-folinic acid [2] = variants of: B1; assay: normalized RNA/DNA level with ligand (relative to sTRSVctl = 100) (log10 (% of sTRSVctl)); HEK293T overexpressing SLC46A1; ligand concentration (+) RNA-Seq: 6 mM; higher = less ribozyme self-cleavage, higher mRNA level; conditions: with (6R,S)-folinic acid; ligand present: yes
Outline: as §1

Variant	normalized RNA/DNA level without ligand (log10) ((6R,S)-folinic acid [1])	normalized RNA/DNA level with ligand (log10) ((6R,S)-folinic acid [2])
UACUGU	1.936 ± 0.0083	1.98 ± 0.02
AGGUCU	2.043 ± 0.0045	2 ± 0.021
CCCUUU	2.06 ± 0.024	2.06 ± 0.044
CGGCUU	2.04 ± 0.04	2.02 ± 0.022
CUUAUA	1.961 ± 0.019	2 ± 0.029
CCGUGA	2.03 ± 0.021	2.05 ± 0.037
UCGUGG	1.947 ± 0.0075	2.02 ± 0.041
GCGCGA	2.047 ± 0.011	2.052 ± 0.018
GCGCGC	2.055 ± 0.0073	2.001 ± 0.011
CGUCUG	2.008 ± 0.01	2.01 ± 0.018
UAAUCC	2.001 ± 0.0044	2.03 ± 0.03
GGCCGC	2.073 ± 0.012	2.083 ± 0.011
GGUCUG	2.081 ± 0.0057	2.06 ± 0.061
CCUCGA	1.998 ± 0.011	2.02 ± 0.029
CGGAAC	1.984 ± 0.0056	2 ± 0.034
GUAUAA	1.96 ± 0.014	1.99 ± 0.006
CGGCAG	1.997 ± 0.0087	2.01 ± 0.052
AAGUUU	2.009 ± 0.017	2.01 ± 0.033
AGCCCU	2.078 ± 0.009	2.05 ± 0.042
GAUUGG	1.973 ± 0.017	2.028 ± 0.019
AGAAAA	1.984 ± 0.0076	2 ± 0.034
GCUGUA	2.019 ± 0.018	2.04 ± 0.033
GGGCAG	2.03 ± 0.0034	2.05 ± 0.057
UUAGUC	2.031 ± 0.0018	2.024 ± 0.0089
CCUGCG	2.01 ± 0.016	2.033 ± 0.02
ACCAUG	1.982 ± 0.012	2.016 ± 0.0077
UUUUGU	1.957 ± 0.014	2 ± 0.046
AGCUGG	2.05 ± 0.0052	2.06 ± 0.031
CCUACU	2.062 ± 0.0069	2.04 ± 0.0079
